This passage reports Kd results from PMC3166367.

Test [1] deals with dimeric (β15-44)2 fragment (β15-42 with Cys43 and Gly44 added, dimerized through Cys43). The test can be described thus: ELISA.
Test [2] has as its target VE-cad(3) fragment (residues Phe210-Phe325), third domain of the extracellular portion of VE-cadherin. The test can be described thus: SPR. (In general: Surface plasmon resonance follows binding to a sensor surface in real time, without labels.)
The target of test [3] is VE-cadherin (Homo sapiens) (UniProt P33151). Nature of the test: SPR. The settings on record: cited from earlier work.
Chain of VE-cadherin (Homo sapiens) (P33151 48-599): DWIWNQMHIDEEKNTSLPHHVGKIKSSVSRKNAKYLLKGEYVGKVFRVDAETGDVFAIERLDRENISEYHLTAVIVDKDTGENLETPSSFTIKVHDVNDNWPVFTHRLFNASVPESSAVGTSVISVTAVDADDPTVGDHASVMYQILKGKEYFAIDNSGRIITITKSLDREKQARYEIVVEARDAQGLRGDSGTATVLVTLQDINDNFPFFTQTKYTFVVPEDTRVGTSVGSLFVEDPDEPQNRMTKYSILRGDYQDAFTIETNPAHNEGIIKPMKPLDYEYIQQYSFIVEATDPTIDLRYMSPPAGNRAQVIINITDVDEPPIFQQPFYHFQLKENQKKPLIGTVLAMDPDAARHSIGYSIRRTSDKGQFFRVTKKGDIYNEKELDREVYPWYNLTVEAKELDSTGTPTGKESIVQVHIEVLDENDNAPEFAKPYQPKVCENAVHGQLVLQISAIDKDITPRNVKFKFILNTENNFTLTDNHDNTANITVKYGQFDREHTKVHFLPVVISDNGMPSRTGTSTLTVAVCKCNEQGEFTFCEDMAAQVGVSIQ

For orientation: Kd means the concentration at which binding is half-saturated. Regarding “VE-cad(3) fragment (residues Phe210-Phe325), third domain of the extracellular portion of VE-cadherin (domain or fragment)”, the Kd in test [1] was 146 nM.
“dimeric (β15-44)2 fragment (β15-42 with Cys43 and Gly44 added, dimerized through Cys43) (peptide)” yielded a Kd in test [2] of 715 nM.
Regarding “fibrin fragment (β15-66)2 15-66 (from UniProt P02675)”, the Kd in test [3] was 80 nM.
